This note sets out measurements from patent US20180142032A1.

The target of experiment [1] is LAMP1::histag (human) (UniProt P11279). Description: SPR (BIAcore 2000), mAb captured by anti-Fc, LAMP1 injected 1 to 256 nM.
For experiment [2] the target is unchanged. As to the kind of experiment: competition ELISA; H4A3 0.06 mg/L read with anti-mouse IgG; competitor chMAb3 15 mg/L.
For experiment [3] the target is unchanged. As to the kind of experiment: SPR (BIAcore 2000). On the technique in general: In SPR one partner is held on a chip, and binding of the other changes the refractive index at the surface.
Experiment [4] shares this target. As to the kind of experiment: competition ELISA; H4A3 0.06 mg/L read with anti-mouse IgG; competitor chMAb2 15 mg/L.
For experiment [5] the target is unchanged. Description: competition ELISA; H4A3 0.06 mg/L read with anti-mouse IgG; competitor chMAb1 15 mg/L. A general note: ELISA stands for enzyme-linked immunosorbent assay.

Sequence of LAMP1::histag (human) (P11279 other isoform, or with tags, fused parts or gaps): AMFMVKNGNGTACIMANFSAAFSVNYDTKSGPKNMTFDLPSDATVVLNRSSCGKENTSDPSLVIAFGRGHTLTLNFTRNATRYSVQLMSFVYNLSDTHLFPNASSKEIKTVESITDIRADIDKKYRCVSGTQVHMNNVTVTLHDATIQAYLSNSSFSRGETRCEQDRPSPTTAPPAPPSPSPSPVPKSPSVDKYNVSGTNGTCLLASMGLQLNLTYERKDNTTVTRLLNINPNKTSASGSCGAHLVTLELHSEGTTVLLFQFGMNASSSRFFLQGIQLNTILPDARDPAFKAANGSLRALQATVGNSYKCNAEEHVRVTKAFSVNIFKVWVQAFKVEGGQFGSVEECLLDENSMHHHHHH

By Kd is commonly meant a measure of binding affinity in units of concentration. Read a high Kd as weaker binding. Usually koff stands for the rate constant with which the complex falls apart. By kon is commonly meant the second-order rate constant of association. Turning to H4A3 (BioLegend 328602) (antibody), the equilibrium dissociation constant (Kd) with LAMP1::histag (human) [1] was 105 nM; with LAMP1::histag (human) [3] it was 100 nM. For the same substance, in the experiment with LAMP1::histag (human) [1], the koff was 0.00609 s⁻¹. This substance also showed a kon with LAMP1::histag (human) [1] of 58000 M⁻¹ s⁻¹. Moreover, the percentage of signal compared to mAb control alone with LAMP1::histag (human) [2] worked out at 11%; with LAMP1::histag (human) [4], 57%; with LAMP1::histag (human) [5], 98%.
